This series relates to CC1=C(/C=C/C(C)=C/C=C/C(C)=C/C=C/C=C(C)/C=C/C=C(\C)C=O)C(C)(C)CCC1. Briefly: beta-ionone formation, Michaelis-Menten nonlinear fit. The conditions noted are these: optimal reaction conditions (pH 9.5 Gly-NaOH, 45 °C reported as optimum), O2 co-substrate. In kind it is biochemical, Olea europaea. From the text: beta-ionone formation, Michaelis-Menten nonlinear fit on OeCCD1

OeCCD1 (Olea europaea var. sylvestris): the Km stood at 820 µM, the maximum rate (Vmax) is 2.3 µmol/min/mg, the kcat worked out at 3.35 s⁻¹ and the kcat/Km was found to be 4090 M⁻¹ s⁻¹.

One may read the Km as the concentration of substrate that gives half-maximal velocity. Broadly, the Vmax is the rate approached at saturating substrate. As a reminder, the kcat is the maximal rate divided by the concentration of active sites. The kcat/Km is the turnover number divided by the Michaelis constant.
